Reference: paper PMC12093452

Molecular target: Postsynaptic density lattice (PSDL) preparation (OG-11U-IS) (rat)
Test: negative-staining electron microscopy of grid-immobilised structures incubated with polymerizing tubulin; PSDL or PSD immobilised on the Formvar membrane of an EM grid, blocked with NGS and BSA at 0°C and 37°C, placed on a droplet of tubulin (ML116, 2 mg/mL, GTB, 1 mM GTP, 5% glycerol) polymerizing at 37°C; fixed with 1% glutaraldehyde, stained with nano-W

- percent of MT ends associated with PSDL and/or PSDL-like structures: 30.9%
Substance: Tubulin MAP-rich, ML116, Cytoskeleton Inc. (from UniProt P02550 1-451) (complex)
